These are literature values, as cited in patent US12628856B2, “Nutritional composition having lipophilic compounds with improved solubility and bioavailability” (Abbott Laboratories, priority 2013, dated 2026).

The conditions of this series: Kd Source: Published; read-out: Lutein Kd.

B1: GSTP1: reference protein with published lutein Kd (protein, UniProt P09211 2-210, looked up)
Glutathione S-transferase P: PPYTVVYFPVRGRCAALRMLLADQGQSWKEEVVTVETWQEGSLKASCLYGQLPKFQDGDLTLYQSNTILRHLGRTLGLYGKDQQEAALVDMVNDGVEDLRCKYISLIYTNYEAGKDDYVKALPGQLKPFETLLSQNQGGKTFIVGDQISFADYNLLDLLLIHEVLAPGCLDAFPLLSAYVGRLSARPKLKAFLASPEYVNLPINGNGKQ
By Kd is commonly meant the equilibrium constant for the complex coming apart. For the molecule B1, the Kd is 1350 nM.

B2: StARD3: reference protein with published lutein Kd (protein, UniProt Q14849 1-445, looked up)
StAR-related lipid transfer …: MSKLPRELTRDLERSLPAVASLGSSLSHSQSLSSHLLPPPEKRRAISDVRRTFCLFVTFDLLFISLLWIIELNTNTGIRKNLEQEIIQYNFKTSFFDIFVLAFFRFSGLLLGYAVLRLRHWWVIAVTTLVSSAFLIVKVILSELLSKGAFGYLLPIVSFVLAWLETWFLDFKVLPQEAEEERWYLAAQVAVARGPLLFSGALSEGQFYSPPESFAGSDNESDEEVAGKKSFSAQEREYIRQGKEATAVVDQILAQEENWKFEKNNEYGDTVYTIEVPFHGKTFILKTFLPCPAELVYQEVILQPERMVLWNKTVTACQILQRVEDNTLISYDVSAGAAGGVVSPRDFVNVRRIERRRDRYLSSGIATSHSAKPPTHKYVRGENGPGGFIVLKSASNPRVCTFVWILNTDLKGRLPRYLIHQSLAATMFEFAFHLRQRISELGARA
As for B2, the Kd was 450 nM.
